Results on two substances are retold here after article PMC8501957.

In this test the target is MvaT F36D/M44D (P. aeruginosa) (UniProt Q9HW86). Put plainly: ITC; gp4 injected into MvaT F36D/M44D in the cell; 20 C; 20 mM Bis-Tris pH 6, 50 mM KCl, 16 mM MgCl2; one set of sites model. For orientation: Isothermal titration calorimetry measures the heat released or taken up as one component is titrated into another.

By Kd is commonly meant the constant that tells how readily two partners part at equilibrium. One may read the stoichiometry N as a count of units in the complex or per binding partner. The substance gp4 K42E/K45E (natural protein) yielded a Kd of 1360 nM and a stoichiometry N of 0.52.
Take “gp4 of Pseudomonas phage LUZ24 (natural protein)”: the Kd was found to be 170 nM and the stoichiometry N amounted to 0.56.
